Among the data in publication PMC7968734 are RFU (NC, no inhibitor) and percent inhibition of EGFP-RAD52 binding values, retold here.

For the assay, the target named is replication protein A (RPA) heterotrimer, full-length (UniProt P15927). In words: FluorIA.

B1: Full-length RAD52 tagged with 6X-His enhanced green fluorescent protein (EGFP-RAD52) (natural protein)
chain: MSGTEEAILGGRDSHPAAGGGSVLCFGQCQYTAEEYQAIQKALRQRLGPEYISSRMAGGGQKVCYIEGHRVINLANEMFGYNGWAHSITQQNVDFVDLNNGKFYVGVCAFVRVQLKDGSYHEDVGYGVSEGLKSKALSLEKARKEAVTDGLKRALRSFGNALGNCILDKDYLRSLNKLPRQLPLEVDLTKAKRQDLEPSVEEARYNSCRPNMALGHPQLQQVTSPSRPSHAVIPADQDCSSRSLSSSAVESEATHQRKLRQKQLQQQFRERMEKQQVRVSTPSAEKSEAAPPAPPVTHSTPVTVSEPLLEKDFLAGVTQELIKTLEDNSEKWAVTPDAGDGVVKPSSRADPAQTSDTLALNNQMVTQNRTPHSVCHQKPQAKSGSWDLQTYSADQRTTGNWESHRKSQDMKKRKYDPS
B1: the RFU (NC, no inhibitor) came out at 17100 RFU.

B2: RAD52(1-303) (domain or fragment)
chain: MSGTEEAILGGRDSHPAAGGGSVLCFGQCQYTAEEYQAIQKALRQRLGPEYISSRMAGGGQKVCYIEGHRVINLANEMFGYNGWAHSITQQNVDFVDLNNGKFYVGVCAFVRVQLKDGSYHEDVGYGVSEGLKSKALSLEKARKEAVTDGLKRALRSFGNALGNCILDKDYLRSLNKLPRQLPLEVDLTKAKRQDLEPSVEEARYNSCRPNMALGHPQLQQVTSPSRPSHAVIPADQDCSSRSLSSSAVESEATHQRKLRQKQLQQQFRERMEKQQVRVSTPSAEKSEAAPPAPPVTHSTPVT
Take B2: the percent inhibition of EGFP-RAD52 binding at a molar ratio of 1:1 was 50%.
